{"source": "patent US20220289795", "about": "“EFFICIENT METHOD FOR PREPARING PPR PROTEIN AND USE OF THE SAME” (EditForce, Inc., published 2022)", "binders": {"B1": {"name": "RNA_16 (ssRNA)", "RNA": "GACAUGCAAGGAUAAUAUCAAACACGACUG"}, "B2": {"name": "RNA_18 (ssRNA)", "RNA": "GACAUGCGGUUAGAGAUACAGUGUGGACUG"}, "B3": {"name": "RNA_17 (ssRNA)", "RNA": "GACAUGCUUAUCAGACUGAUGUUGAGACUG"}}, "assay_in_all_cases": "ELONA; RPB-ELISA", "key": {"v3.1_PPR16": {"biological_target": "T1, v3.1_PPR16 (Artificial Sequence)", "T1 chain": "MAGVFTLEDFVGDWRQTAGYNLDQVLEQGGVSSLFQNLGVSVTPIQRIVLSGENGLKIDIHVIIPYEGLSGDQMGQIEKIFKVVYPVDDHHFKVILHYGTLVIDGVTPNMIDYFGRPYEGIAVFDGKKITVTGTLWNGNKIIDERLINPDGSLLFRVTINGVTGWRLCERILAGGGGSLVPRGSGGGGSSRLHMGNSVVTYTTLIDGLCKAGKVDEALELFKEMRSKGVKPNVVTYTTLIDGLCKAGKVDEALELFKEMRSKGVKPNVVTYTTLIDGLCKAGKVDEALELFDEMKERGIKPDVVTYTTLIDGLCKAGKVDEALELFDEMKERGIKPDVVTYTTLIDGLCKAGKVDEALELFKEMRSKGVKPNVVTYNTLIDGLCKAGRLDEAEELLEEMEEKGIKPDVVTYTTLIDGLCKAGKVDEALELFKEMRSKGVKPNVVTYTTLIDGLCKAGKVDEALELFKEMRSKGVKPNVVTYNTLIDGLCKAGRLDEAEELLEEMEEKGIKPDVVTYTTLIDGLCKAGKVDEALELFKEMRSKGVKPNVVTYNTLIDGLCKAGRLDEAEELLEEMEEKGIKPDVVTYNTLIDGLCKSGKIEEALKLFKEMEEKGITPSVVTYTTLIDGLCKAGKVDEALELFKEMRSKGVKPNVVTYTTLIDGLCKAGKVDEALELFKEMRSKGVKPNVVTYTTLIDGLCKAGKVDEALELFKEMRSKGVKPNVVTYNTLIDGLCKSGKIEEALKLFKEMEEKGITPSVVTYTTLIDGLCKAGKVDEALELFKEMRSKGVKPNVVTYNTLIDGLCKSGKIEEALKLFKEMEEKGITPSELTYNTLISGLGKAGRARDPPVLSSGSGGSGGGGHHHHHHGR", "details": "tags: luciferase fusion; label: 5'-biotin"}, "NL_v2_PPR16": {"biological_target": "T2, NL_v2_PPR16 (Artificial Sequence)", "T2 chain": "T1 chain with K213D, K248D, K353D, K423D, K458D, K528D, K633D, K668D, K703D, K773D", "details": "tags: N-term luciferase, C-term 6xHis; label: 5'-biotin"}, "v3.1_PPR18": {"biological_target": "T3, v3.1_PPR18 (Artificial Sequence)", "T3 chain": "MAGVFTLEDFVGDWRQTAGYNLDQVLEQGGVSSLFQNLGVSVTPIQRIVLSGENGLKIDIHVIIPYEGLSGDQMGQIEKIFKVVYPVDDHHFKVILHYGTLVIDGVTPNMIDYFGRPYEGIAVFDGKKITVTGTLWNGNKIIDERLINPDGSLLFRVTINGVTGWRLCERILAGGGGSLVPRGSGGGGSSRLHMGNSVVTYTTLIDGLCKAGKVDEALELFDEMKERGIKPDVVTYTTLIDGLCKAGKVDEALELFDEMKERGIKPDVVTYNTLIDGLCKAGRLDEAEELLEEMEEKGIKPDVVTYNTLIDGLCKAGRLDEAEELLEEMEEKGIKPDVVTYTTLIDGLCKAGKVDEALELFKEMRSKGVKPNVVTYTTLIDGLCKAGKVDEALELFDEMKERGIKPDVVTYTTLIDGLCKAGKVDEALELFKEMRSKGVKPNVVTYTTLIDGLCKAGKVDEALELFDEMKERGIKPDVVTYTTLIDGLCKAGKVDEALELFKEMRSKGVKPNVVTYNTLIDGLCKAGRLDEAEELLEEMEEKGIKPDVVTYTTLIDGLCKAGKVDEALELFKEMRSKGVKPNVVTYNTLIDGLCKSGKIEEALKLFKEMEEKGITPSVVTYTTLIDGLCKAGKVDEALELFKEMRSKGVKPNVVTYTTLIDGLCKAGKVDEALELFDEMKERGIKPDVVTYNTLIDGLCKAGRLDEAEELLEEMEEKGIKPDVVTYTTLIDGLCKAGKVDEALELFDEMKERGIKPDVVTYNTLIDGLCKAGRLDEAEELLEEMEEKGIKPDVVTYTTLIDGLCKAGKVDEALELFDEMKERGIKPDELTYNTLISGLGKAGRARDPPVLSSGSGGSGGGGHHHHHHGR", "details": "tags: luciferase fusion; label: 5'-biotin"}, "NL_v2_PPR18": {"biological_target": "T4, NL_v2_PPR18 (Artificial Sequence)", "T4 chain": "T3 chain with K353D, K423D, K493D, K563D, K633D", "details": "tags: N-term luciferase, C-term 6xHis; label: 5'-biotin"}, "v3.1_PPR17": {"biological_target": "T5, v3.1_PPR17 (Artificial Sequence)", "T5 chain": "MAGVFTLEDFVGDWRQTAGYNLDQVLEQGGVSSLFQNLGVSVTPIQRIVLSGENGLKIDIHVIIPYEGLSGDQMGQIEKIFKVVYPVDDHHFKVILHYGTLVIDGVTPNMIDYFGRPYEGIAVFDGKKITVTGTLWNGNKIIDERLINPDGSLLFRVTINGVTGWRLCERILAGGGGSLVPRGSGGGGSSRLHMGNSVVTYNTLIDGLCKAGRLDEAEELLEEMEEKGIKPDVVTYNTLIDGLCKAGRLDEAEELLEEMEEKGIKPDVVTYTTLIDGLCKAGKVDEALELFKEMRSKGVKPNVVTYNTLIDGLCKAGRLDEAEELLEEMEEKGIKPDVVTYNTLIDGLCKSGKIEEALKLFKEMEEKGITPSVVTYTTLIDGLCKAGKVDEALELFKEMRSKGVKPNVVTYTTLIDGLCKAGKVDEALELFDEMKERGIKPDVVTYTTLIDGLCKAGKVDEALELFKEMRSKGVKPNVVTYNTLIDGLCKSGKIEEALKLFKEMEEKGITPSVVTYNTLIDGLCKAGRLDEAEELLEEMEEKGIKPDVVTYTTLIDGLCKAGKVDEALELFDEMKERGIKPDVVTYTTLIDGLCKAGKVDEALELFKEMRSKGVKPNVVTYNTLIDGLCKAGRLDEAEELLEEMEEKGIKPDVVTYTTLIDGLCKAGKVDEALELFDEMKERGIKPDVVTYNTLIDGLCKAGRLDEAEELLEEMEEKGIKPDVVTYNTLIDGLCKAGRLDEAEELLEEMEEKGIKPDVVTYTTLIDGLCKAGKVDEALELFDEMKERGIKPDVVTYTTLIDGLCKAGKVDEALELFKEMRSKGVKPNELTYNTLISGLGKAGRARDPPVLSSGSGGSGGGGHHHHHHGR", "details": "tags: luciferase fusion; label: 5'-biotin"}}, "note": "Residue numbers refer to the chain shown, from its start."}
{"binder": "B1", "values": [{"measurement": "binding signal", "setting": "v3.1_PPR16", "result": "6.3e+07", "unit": "luminescence"}, {"measurement": "binding signal", "setting": "NL_v2_PPR16", "result": "2.8e+07", "unit": "luminescence"}]}
{"binder": "B2", "values": [{"measurement": "binding signal", "setting": "v3.1_PPR18", "result": "2.9e+07", "unit": "luminescence"}, {"measurement": "binding signal", "setting": "NL_v2_PPR18", "result": "1.1e+07", "unit": "luminescence"}]}
{"binder": "B3", "values": [{"measurement": "binding signal", "setting": "v3.1_PPR17", "result": "3.3e+07", "unit": "luminescence"}]}
